This data set deals with the molecule itself. The data set can be described thus: SEC; 100 µg/ml PSMα3-FITC on Superdex 200 10/300GL equilibrated with PBS; OD492 nm.

Ends that are not written are not given here. * marks the point of attachment. For = O=C*

B1: FITC-labeled PSMα3 (peptide)
peptide: For-MEFVAKLFKFFKDLLGKFLGNN
modifications: also: FITC label, site not given here
notes: labeled by incubating 1 mg/ml PSMα3 with 100 µg/ml FITC in 0.1 M sodium carbonate buffer pH 9.6; also called PSMα3-FITC
On to B1, for which the binding result was “binds”.

Source of the values: article PMC3310821, “Inactivation of Staphylococcal Phenol Soluble Modulins by Serum Lipoprotein Particles” (PLoS Pathogens, 2012).
